{"source": "paper PMC4134230", "key": {"[1]": {"test_system": "Tau (hTau42, longest isoform, unphosphorylated) (Homo sapiens)", "test": "SPR (equilibrium saturation)", "conditions": "immobilized on polylysine-heparin-polylysine gold surface; 10 mM Hepes, 0.1 M NaCl, pH 7; SPR at 13-33 C, DNA immobilized on polylysine-heparin-polylysine gold surface"}, "[2]": {"test_system": "Tau (hTau42, longest isoform, unphosphorylated) (Homo sapiens)", "test": "SPR (kinetic)", "conditions": "average of six determinations, 18-22 C; Kd given as 0.04 uM; immobilized on polylysine-heparin-polylysine gold surface; 10 mM Hepes, 0.1 M NaCl, pH 7; SPR at 13-33 C, DNA immobilized on polylysine-heparin-polylysine gold surface"}}, "data": [{"substance": "calf thymus DNA (activated type XV, Sigma)", "values": [{"measurement": "Ka", "setting": "[1]", "value": "2.3 10^7 M^-1"}, {"measurement": "Ka", "setting": "[2]", "value": "2.4 10^7 M^-1"}]}]}
